Reference: US20040116675A1 (published 2004)

Legend:
[1] = target: T1, CD28 on P815/CD28+ cells (P815 mouse mastocytoma stably transfected with CD28) (human, UniProt P10747 19-220); test: competition against ^125I-labeled MuTN228 on P815/CD28+ cells, Expt 1
T1 construct: whole, on cells; also called CD28 antigen; CD28 molecules on P815/CD28^+ cells

[2] = target: T2, sCD28-Fc (extracellular domains of CD28 combined with the CH2 and CH3 domains of IgG1) (human, UniProt P10747 19-152); test: ELISA competition on coated sCD28-Fc against MuTN228-biotin, reference MuTN228
T2 construct: extracellular domain; not shown: CH2 and CH3 domains of IgG1

[3] = target: T2, sCD28-Fc (extracellular domains of CD28 …); test: ELISA competition on coated sCD28-Fc against MuTN228-biotin, Expt 1
[4] = target: T2, sCD28-Fc (extracellular domains of CD28 …); test: ELISA competition on coated sCD28-Fc against MuTN228-biotin, average of 3 experiments (Std. Dev. 0.14)
[5] = target: T1, CD28 on P815/CD28+ cells (P815 mouse …); test: competition against ^125I-labeled MuTN228 on P815/CD28+ cells, Expt 3
[6] = target: T2, sCD28-Fc (extracellular domains of CD28 …); test: ELISA competition on coated sCD28-Fc against MuTN228-biotin, Expt 2
[7] = target: T1, CD28 on P815/CD28+ cells (P815 mouse …); test: competition against ^125I-labeled MuTN228 on P815/CD28+ cells, Expt 2
[8] = target: T1, CD28 on P815/CD28+ cells (P815 mouse …); test: competition against ^125I-labeled MuTN228 on P815/CD28+ cells, reference MuTN228
[9] = target: T1, CD28 on P815/CD28+ cells (P815 mouse …); test: competition against ^125I-labeled MuTN228 on P815/CD28+ cells, average of 3 experiments (St. Dev. 0.26)

IC50 [1]: 2.65 nM
fold less relative binding than MuTN228 [2]: 2.6 fold
IC50 [3]: 0.37 µg/mL
IC50 [4]: 0.5 µg/mL
IC50 [5]: 2.13 nM
IC50 [6]: 0.64 µg/mL
IC50 [7]: 2.43 nM
fold less apparent binding affinity than MuTN228 [8]: ~2.4 fold
IC50 [9]: 2.4 nM
B1: HuTN228 (humanized TN228-IgG2M3) (antibody, V domains shown)
VH: QVQLQESGPGLVKPSETLSLTCAVSGFSLTSYGVHWIRQPPGKGLEWLGVIWPGGGTNFNSALMSRLTISEDTSKNQVSLKLSSVTAADTAVYYCARDRAYGNYLYAMDYWGQGTLVTVSS
VL: DIQMTQSPSSLSASVGDRVTITCRASESVEYYVTSLMQWYQQKPGKAPKLLIYAASNVDSGVPSRFSGSGSGTDFTLTISSLQPEDIATYYCQQSRKVPFTFGGGTKVEIK
